Several values for one entry are separate records, joined by “and”; a condition that tells them apart may be missing. Equal entries are not always repeated. Where two headings read alike, the source gives them in different places.
Key:
Test in all cases: native MS
[1] = target: T1, recombinant form of human platelet factor 4 (PF4), tetramer (human, UniProt P02776)
[2] = target: T1, recombinant form of human platelet …; remark: listed apart in the source
native MS = target: the molecule itself

B1: KKO monoclonal anti-PF4/heparin antibody (antibody, V domains shown)
VH: VQLQQSGAELVKPGASVKLSCKASGYTFTNYFIYWVKQRPGQGLEWIGEINPRNGDTDFNEKFESRATLTVDKSSSTAYMQLSSLTSEDSAIYYCTRSPYGNNYGFTYWGQGTLVTVSA
VL: DIQMIQSQKFMSTSVGDRVTVTCKASQNVGTNVAWYQQKPGQSPNALIYSASYRYSGVPDRFTGSGSGTDFTLTITNVQSEDLADYFCQQYNSYPLTFGTGTKLDLK
stoichiometry N [1]: 1 PF4 tetramer (with dp20) per KKO and 2 PF4 tetramers (with dp20) per KKO
stoichiometry N [2]: 1 KKO per complex of two PF4 tetramers on one heparin chain and 2 KKO per complex of three PF4 tetramers on one heparin chain

B2: recombinant form of human platelet factor 4 (PF4), tetramer (natural protein)
chain: EAEEDGDLQCLCVKTTSQVRPRHITSLEVIKAGPHCPTAQLIATLKNGRKICLDLQAPLYKKIIKKLLES
stoichiometry N (native MS): 4 chains per oligomer

Source: paper doi:10.1101/2023.02.11.528150 (bioRxiv, 2023)
